These results are taken from patent US20250179126A1, “A NOVEL PEPTIDE FROM A PHOTOSYNTHETIC BACERIUM DIRECTLY TARGETS MITOCHONDRIA TO TRIGGER APOPTOSIS IN ADVANCED PROSTATE CANCER CELLS” (priority 2022, published 2025).

Series [1] has as its system spontaneously developed mammary tumors. Description: NIR-imaging of transgenic mice. The series is classed as in vivo. The settings on record: 5 mg/kg once, imaged after 24 h. The protocol:
FIG. 29A-29C: Effect of azurin from P. aeruginosa in a transgenic animal model. 29A. Near-infrared red (NIR) dye-conjugated azurin or PBS was injected i.v. into transgenic mice that spontaneously develop mammary tumors. Twenty-four hours after azurin injection, mice were imaged with a photodynamic eye (PDE) system (left: photographic image, right: NIR fluorescence image at 800 nm). 29B. At the end of the study, the tumors were resected.
NIR-imaging of transgenic mice: Near infrared red fluorescent dye (IR800, Licor, NE) was conjugated to azurin according to the manufacturer instructions. Transgenic mice with spontaneously developed mammary tumours received NIR dye conjugated azurin at 5 mg/kg once i.p. After 24 h, specific fluorescence signal at 800 nm was recorded by the PDE-neo® NIR camera system (Hamamatsu photonics, Mitaka-USA).

The test system of a further series is P. aeruginosa. In words: Azurin secretion by P. aeruginosa treated with purified aldolase A (western blot). The series is classed as cell-based, Pseudomonas aeruginosa. The settings on record: 30 min. The protocol: FIG. 18A-18G: Induction of aldolase A secretion by host cells in the presence of P. aeruginosa. 18A. Human host cells (cancer and normal) and P. aeruginosa were co-incubated for 30 min at a concentration of 500,000 human cells/ml with P. aeruginosa at OD=0.3. Aldolase secretion varied between the co-cultures with cancer and normal cells. […] 18B Correlation between the aldolase A and azurin levels in co-cultures of P. aeruginosa with cancer or normal cells. 18C Cancer cells (Mel-2 and MDA-MB-231) and P. aeruginosa (WT and azunull mutant) were co-incubated for 30 min at a concentration of 500,000 human cells/ml with P. aeruginosa at OD=0.3. Secretion of aldolase into the culture supernatant was assessed by western blot analysis. 18D P. aeruginosa (OD=0.3) was treated with purified aldolase A protein at concentrations of 1 nM, 10 nM, 100 nM, and 1 μM for 30 min. […]
Western blotting: After running the NuPAGE, proteins were transferred to PVDF membranes (BioRad Laboratories Inc, Hercules, CA) which were blocked in SuperBlock (T20 TBS buffer, Thermo Fisher) for one hour. […] The signal was detected using enhanced chemiluminescence (ECL, Thermo Fisher Scientific). Quantitative analysis of the bands was performed with a computer-assisted imaging densitometer (UN-SCAN-IT gel version 5.1).

Another series concerns MDA-MB-231 cells. In words: Host cell adhesion assay, P. aeruginosa on MDA-MB-231 cells. It counts as cell-based, human. The protocol:
(§1) FIG. 24A-24E: 24A—Adherence assays were performed essentially as previously described38. Monolayer MDA-MB-231 (red) and Mel-2 (blue) cells were compared to siRNA-induced silencing of aldolase gene in the cancer cell lines (+) when they were co-incubated with P. aeruginosa for 2 h. To assess total cell association, monolayers were washed to remove unbound P. aeruginosa and were then disrupted and homogenized in 0.10% saponin/PBS. P. aeruginosa cells were counted by serial dilution of the homogenized suspensions and subsequent determination of colony-forming units (CFU) by plating on LB agar. Control (−) expressed as 100%. Mean±SE, *P<0.05. 24B—Monolayer MDA-MB-231 (red) and Mel-2 (blue) cells were co-incubated with P. aeruginosa in the presence or absence of exogenous aldolase A for 2 h. Similar to above, total P. aeruginosa association on cancer cells were counted by plating on LB agar. Control (0 μM aldolase A) expressed as 100%. […] Total P. aeruginosa association on cancer cells were counted by plating on LB agar. *P<0.05, NS: not significant. […] The mean+SE values were calculated.
(§2) Host cell adhesion assay: The assays were performed essentially as described before38. […] Control values of CFU/ml expressed as 100%. siRNA-induced silencing of aldolase and MUC1 genes in MDA-MB-231 and Mel2 cells as conducted as described previously80,81. […]

Another series relates to Mel-2 cells. Description: Host cell adhesion assay, P. aeruginosa on Mel-2 cells. It counts as cell-based, human. As to the method: as §1, §2

Take “NIR dye-conjugated azurin: azurin conjugated to near infrared red fluorescent dye IR800”: the “tumor localization (NIR fluorescence at 800 nm)” value in series [1] is “preferentially localized to spontaneously developed mammary tumors”.

B1: aldolase A: purified human aldolase A (purity >95%), glycolytic enzyme (protein, UniProt P04075 2-364, looked up)
Fructose-bisphosphate …: PYQYPALTPEQKKELSDIAHRIVAPGKGILAADESTGSIAKRLQSIGTENTEENRRFYRQLLLTADDRVNPCIGGVILFHETLYQKADDGRPFPQVIKSKGGVVGIKVDKGVVPLAGTNGETTTQGLDGLSERCAQYKKDGADFAKWRCVLKIGEHTPSALAIMENANVLARYASICQQNGIVPIVEPEILPDGDHDLKRCQYVTEKVLAAVYKALSDHHIYLEGTLLKPNMVTPGHACTQKFSHEEIAMATVTALRRTVPPAVTGITFLSGGQSEEEASINLNAINKCPLLKPWALTFSYGRALQASALKAWGGKKENLKAAQEEYVKRALANSLACQGKYTPSGQAGAAASESLFVSNHAY
B1: the “azurin secretion by P. aeruginosa (western blot)” value in the series with P. aeruginosa (P. aeruginosa OD=0.3, 1 μM aldolase A) was “stimulated azurin secretion”; with P. aeruginosa (P. aeruginosa OD=0.3, purified aldolase A 1 nM-1 μM), “induced azurin secretion”. Further, the “aldolase A concentration at which increase of adherence is saturable” value in the series with MDA-MB-231 cells (MDA-MB-231, 2 h) was above 1 µM; in the series with Mel-2 cells (Mel-2, 2 h) it was above 1 µM. Moreover, the “adherence of P. aeruginosa to cancer cells” value in the series on MDA-MB-231 cells (MDA-MB-231, exogenous aldolase A, 2 h) is listed as “significantly increased adherence to cancer cells”; in the series with Mel-2 cells (Mel-2, exogenous aldolase A, 2 h), “significantly increased adherence to cancer cells”.
